From patent US20260007756A1, “COMPOUND AND USE THEREOF” (COHERENT BIOPHARMA (SUZHOU) LIMITED, priority 2022, published 2026)
Converted amounts (≈) assume the structure as drawn. Read-outs that look alike come from different tables or passages of the source.

Columns and labels:
Solubility study in PBS = format: physicochemical; settings: aqueous buffer, thermodynamic from solid; PBS (pH 7.2 to 7.4); read-out: Solubility, concentration
Method: The mixture was vortexed for 2 min until the solid was dissolved. The solubility was calculated as: C=m/V, C: concentration, m: sample weight, V: PBS total volume.

Plasma stability study 2 = format: in vitro ADME; settings: mouse plasma, 37° C.
Method: • 1) The conjugate compounds were prepared into 1 mg/mL stock solutions with 0.1% TFA-acetonitrile water (1:1); • 2) 10 μL of 1 mg/mL compound stock solution was added into 90 μL of fresh plasma, and the mixture was well mixed by gentle shaking, and transferred to a thermostatic incubator at 37° C. for 0 h, 0.5 h, 1 h, 2 h, 4 h, 6 h, or 24 h of incubation; • 3) at the time points, samples were taken out and 300 μL of methanol solution (containing 10 ng/ml of terfenadine) was added for protein precipitation; • 4) the mixture was centrifuged (13 min, 4° C., 12000 rpm) and the supernatant was collected, and preserved in a −80° C. refrigerator; after collection, the samples were loaded for LC-MS analysis.

22RV1 = format: cell-based, human; settings: 22RV1, 72 h, CellTiter-Glo
Description: (§1) Negative and blank controls were set.

MDA-MB-231 = format: cell-based, human; settings: MDA-MB-231, 72 h, CellTiter-Glo
Description: as §1

BRD4 = molecular target: T1, BRD4 (Homo sapiens, UniProt O60885); assay: Target protein degradation activity, Western Blot; format: cell-based
T1 construct: endogenous in cells; host or cells: MDA-MB-231, 22RV1
Method: Information on cell lines: MDA-MB-231 (human breast cancer cell) and 22RV1 (human prostate cancer cell)
• 1) A proper amount of RIPA lysis buffer was added to the Protease Inhibitor Cocktail (1:100) a few minutes before use. • 2) The medium of the cells was discarded. The cells were collected by cell scraper, centrifuged, and washed twice with pre-cooled PBS. The lysis buffer was added at 300 μL per dish. The centrifuge tube was placed on ice and mixed by pipetting for 5 min to allow the lysis buffer to fully contact the cells. • 3) After 30 min of lysis, the lysate was collected, transferred to a centrifuge tube, and centrifuged for 15 min at 12000×g to pelletize the cell debris. • 4) The supernatant was transferred to a new centrifuge tube, for subsequent Western Blot. […]
The antibody marked by HRP was coupled with an enhanced chemiluminescence reagent for chromogenesis, and the exposure was conducted via an X-ray film. The positions of the antigen-antibody (primary antibody)-antibody (secondary antibody) complex on the nitrocellulose membrane were determined by means of development, washing, and fixation. […]

β-glucosidase = settings: PBS pH 6.8, 25° C.
Method: • 1) CR202AL was formulated into a 500 μg/mL stock solution with PBS (pH 6.8); • 2) 100 μL of 500 μg/mL compound stock solution was added to 775 μL of PBS (pH=6.8) before 125 μL of 100 U/mL β-glucosidase was added, and the mixture was well mixed by gentle shaking. • 3) The cleavage reaction system in step 2) was transferred to a thermostatic incubator at 25° C. for 0 h, 1 h, 2 h, 4 h, or 24 h of incubation. Samples were taken and loaded at various time points for LC-MS analysis.

C4-2 = settings: C4-2, 72 h, CellTiter-Glo
Method: Cells were prepared in advance, trypsinized, collected, counted, diluted to 1.5×10^4 cells/mL in a complete cell culture medium, and plated in 96-well plates. The diluted cell suspension was added at 100 μL/well, and negative and blank control wells were set on each plate. The 96-well plates with the added cells were incubated overnight at 37° C. in a 5% CO2 incubator.
Samples were serially diluted with medium (serially 3-fold diluted from 10 μM) to 9 concentrations. The medium in the plates was discarded, and the drug solutions were added at 100 μL per well to a 96-well plate in triplicate. Negative and blank controls were set. The plates were incubated at 37° C. for 72 h in a 5% CO2 incubator.
The CellTiter-Glo buffer was thawed and warmed to room temperature, and the CellTiter-Glo substrate was warmed to room temperature. The CellTiter-Glo buffer was added to the flask containing CellTiter-Glo substrate to dissolve the substrate, thereby preparing a CellTiter-Glo working solution, which was then vortexed slowly to complete dissolution. The cell culture plates were equilibrated at room temperature for 30 min, before the CellTiter-Glo working solution was added at 50 μL/well (about half the volume of cell culture medium in each well). The plate was covered by aluminum foil to keep out of light. The culture plate was shaken on an orbital shaker for 2 min to induce cell lysis. The culture plate was left to stand at room temperature for 10 min to stabilize the luminescence signals. The luminescence signal was detected on a microplate reader (Molecular Devices SpectraMax iD5).
Four-parameter curves were fitted using GraphPad Prism 8.0.2 to give IC50 values.

SK-OV-3 = assay: Expansion inhibition of tumor cells (Example 10, CCK-8); format: cell-based; settings: Homo sapiens, SK-OV-3 (FOLR1 overexpression), 72 h
Method: Samples were serially diluted with medium (serially 5-fold diluted from 10 μM) to 9 concentrations. […] Negative and blank controls were set.
A CCK-8 developing solution was added at 10 μL/well (10% of the liquid volume in the wells). The plates were incubated at 37° C. for a proper time (the OD value was controlled within the range of 1.0-2.5 as possible). The plate covers were removed, and the 96-well plates were loaded on a microplate reader (Molecular Devices SpectraMax iD5) to read the measurement at 450 nm.

CC[C@@H]1C(=O)N(C)c2cnc(Nc3ccc(-c4cn([C@H]5CC[C@@H](N(CCOCCC#Cc6cccc7c6CN(C6CCC(=O)NC6=O)C7=O)C(=O)OCc6ccc(O[C@@H]7O[C@H](C(=O)O)[C@@H](O)[C@H](O)[C@H]7O)c(NC(=O)CCNC(=O)COCCOCCn7cc(C[C@H](NC(=O)[C@H](CCCCN)NC(=O)[C@H](CC(=O)O)NC(=O)[C@H](CC(=O)O)NC(=O)Cc8ccc(CNC(=O)NCCCC[C@H](NC(=O)N[C@@H](CCC(=O)O)C(=O)O)C(=O)O)cc8)C(=O)N[C@@H](CCCCNC(=O)CC[C@H](NC(=O)c8ccc(NCc9cnc%10[nH]c(N)nc(=O)c%10n9)cc8)C(=O)O)C(N)=O)nn7)c6)CC5)nn4)cc3OC)nc2N1C1CCCC1 (some centres unmarked) [CR202AL]
solubility at 2 min (Solubility study in PBS): 5700 µg/mL (≈ 1910 µM)
CR20274 release rate (actual release/theoretical release) (Plasma stability study 2; 0 h): 0.01%
Residual rate of principal component (Plasma stability study 2; 0 h): 76.04%
CR20274 release rate (actual release/theoretical release) (Plasma stability study 2; 0.5 h): 0.47%
remaining at 0.5 h, 100 μg/mL (Plasma stability study 2; 0.5 h, read-out: Residual rate of principal component): 69.8%
CR20274 release rate (actual release/theoretical release) (Plasma stability study 2; 1 h): 0.86%
remaining at 1 h, 100 μg/mL (Plasma stability study 2; 1 h, read-out: Residual rate of principal component): 78.1%
CR20274 release rate (actual release/theoretical release) (Plasma stability study 2; 2 h): 0.96%
remaining at 2 h, 100 μg/mL (Plasma stability study 2; 2 h, read-out: Residual rate of principal component): 75.6%
CR20274 release rate (actual release/theoretical release) (Plasma stability study 2; 4 h): 2.60%
remaining at 4 h, 100 μg/mL (Plasma stability study 2; 4 h, read-out: Residual rate of principal component): 74.9%
CR20274 release rate (actual release/theoretical release) (Plasma stability study 2; 6 h): 3.69%
remaining at 6 h, 100 μg/mL (Plasma stability study 2; 6 h, read-out: Residual rate of principal component): 57.1%
CR20274 release rate (actual release/theoretical release) (Plasma stability study 2; 24 h): 28.17%
Residual rate of principal component (Plasma stability study 2; 24 h): 1.20%
IC50 (22RV1): 6.3 nM
IC50 (MDA-MB-231): 2.5 nM
Degradation of BRD4 (Western Blot) (BRD4; 3 nM over 6 h): almost completely degrading
Degradation of BRD4 (Western Blot) (BRD4; at 24 h (FIG. 4B)): still retain strong degradation activity
CR20274 release rate of CR202AL after cleavage (β-glucosidase; 0 h): 5.16%
Principal component residue of CR202AL after cleavage (β-glucosidase; 0 h): 100.00%
CR20274 release rate of CR202AL after cleavage (β-glucosidase; 1 h): 107.33%
Principal component residue of CR202AL after cleavage (β-glucosidase; 1 h): 26.70%
CR20274 release rate of CR202AL after cleavage (β-glucosidase; 2 h): 146.03%
Principal component residue of CR202AL after cleavage (β-glucosidase; 2 h): 9.75%
CR20274 release rate of CR202AL after cleavage (β-glucosidase; 4 h): 146.54%
Principal component residue of CR202AL after cleavage (β-glucosidase; 4 h): 4.87%
CR20274 release rate of CR202AL after cleavage (β-glucosidase; 24 h): 100.80%
Principal component residue of CR202AL after cleavage (β-glucosidase; 24 h): 0.00%
IC50 (C4-2): 0.5 nM

Cc1ncsc1-c1ccc(CNC(=O)C2CC(O)CN2C(=O)C(NC(=O)COCCOCC(=O)NC2(C(=O)NCCCn3cc(-c4ccc(OC(F)(F)F)cc4)c4cc(CN5CCN(Cc6c(Cl)cccc6Cl)CC5)ccc43)CCNCC2)C(C)(C)C)cc1 (centres unmarked) [CR202CF]
IC50 (SK-OV-3): 31.5 nM

Cc1ncsc1-c1ccc(CNC(=O)C2CC(O)CN2C(=O)C(NC(=O)COCCOCCOCC(=O)NC2(C(=O)NCCCn3cc(-c4ccc(OC(F)(F)F)cc4)c4cc(CN5CCN(Cc6c(Cl)cccc6Cl)CC5)ccc43)CCNCC2)C(C)(C)C)cc1 (centres unmarked) [CR202CI]
IC50 (SK-OV-3): 0.3 nM
